Data: patent US20250145730A1 (SHANGHAI BAO PHARMACEUTICALS, published 2025)

Biological target: T1, human FcRn (human, UniProt P55899 24-297; P61769 21-119)
T1 construct: also called hFcRn
Assay: BLI, acidic conditions, against the wild-type antibody

fold of the wild-type antibody's affinity: ≤ 3 fold
B1: Antibody 8 (antibody, human IgG1, kappa)
heavy: not shown
light: DIVMTQSHLSMSTSLGDPVSITCKASQDVSTVVAWYQQKPGQSPRRLIYSASYRYIGVPDRFTGSGAGTDFTFTISSVQAEDLAVYYCQQHYSPPYTFGGGTKLEIKRTVAAPSVFIFPPSDEQLKSGTASVVCLLNNFYPREAKVQWKVDNALQSGNSQESVTEQDSKDSTYSLSSTLTLSKADYEKHKVYACEVTHQGLSSPVTKSFNRGEC
notes: also called antibody 3-Fucose
